Reference: the supplement of paper PMC9732359
± gives the uncertainty stated by the source.

Experiment: protein stability index of a GFP-peptide fusion (yeast GPS) (PSI 1-4); higher = more stable; sorted into four equal gates, so the index is relative within each strain
In short: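 Each library plasmid carries Cherry plus GFP with a tiled 17-residue yeast protein peptide fused downstream, and the pooled library was carried in yeast. Mid-log cultures in leucine-free medium were sorted into four equal gates by GFP/Cherry ratio. Reads from Illumina sequencing of PCR-amplified plasmids from each gate were assigned to strains by barcodes. Per peptide, the protein stability index was computed as the summed products of gate read frequency and gate number.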

Sequence | protein stability index (doa10∆) | protein stability index (pdr5∆) | protein stability index (san1∆) | protein stability index (ubr1∆)
TGPFKVNGVPLRRVNAR [RPL6B] | 2.26 ± 0.13 | 2.49 ± 0.099 | 2.56 ± 0.095 | 2.72 ± 0.061
DALRRGMLAMASLHSKE [MED4] | 1.87 ± 0.15 | 2.23 ± 0.15 | 2.24 ± 0.17 | 2.05 ± 0.17
EGQLKPGDGSSYINVTF [RPC25] | 3.44 ± 0.15 | 3.12 ± 0.15 | 2.77 ± 0.19 | 3.02 ± 0.11
FIERNFTPQEIEYCSAQ [FAS2] | – | 3.54 ± 0.26 | 2.72 ± 0.26 | 2.73 ± 0.22
SGYVRSRGESDDSLNRL [RPS21A] | 2.94 ± 0.14 | 1.85 ± 0.074 | 2.17 ± 0.084 | 2.88 ± 0.059
LSGGGHDNHGNKLGNKR [CDC53] | – | – | – | 3.65 ± 0.23
THHTDIIPIVDYAQLDH [ARP9] | 2.58 ± 0.051 | 2.39 ± 0.041 | 2.66 ± 0.039 | 2.61 ± 0.031
AKLSDTLIIDQVRKDLG [NUT1] | 2.83 ± 0.11 | 2.32 ± 0.16 | 2.7 ± 0.13 | 2.85 ± 0.09
QSQPQEKFSEKMLKIWT [ECM29] | 3.57 ± 0.26 | 3.08 ± 0.15 | 2.9 ± 0.21 | 3.03 ± 0.2
TFGKPEEEDSILSLEQS [YCS4] | 3.19 ± 0.091 | 3.19 ± 0.074 | 3.14 ± 0.057 | 3.13 ± 0.095
ETKDIRKQIQLLKKIIF [SRB4] | 2.34 ± 0.052 | 2.43 ± 0.044 | 2.42 ± 0.045 | 2.39 ± 0.039
RVWAEYATKRQEAIQQN [PRP8] | 2.37 ± 0.15 | 2.56 ± 0.1 | 2.61 ± 0.1 | 2.2 ± 0.096
ENLPGLSISVAAEPMDS [SNU114] | 2.7 ± 0.062 | 2.91 ± 0.079 | 2.83 ± 0.074 | 3.17 ± 0.095
DLIADTITNSSSSSDII [YML103C/NUP188] | 2.89 ± 0.077 | 2.46 ± 0.046 | 2.63 ± 0.04 | 2.56 ± 0.044
DTFDGSDLRVLSGSISE [FAS1] | 1.6 ± 0.079 | 2.34 ± 0.067 | 1.49 ± 0.14 | 1.79 ± 0.059
LGNTVSTQPSFAWSKPS [YGR119C/NUP57] | 2.62 ± 0.067 | 2.84 ± 0.056 | 2.85 ± 0.077 | 2.25 ± 0.035
SMVYSNVGELIEKNVME [RRP4] | 2.06 ± 0.052 | 2.66 ± 0.053 | 2.55 ± 0.056 | 2.03 ± 0.048
ITHRDLHYDKDYNLRIY [SSN8] | 2.21 ± 0.051 | 2.1 ± 0.041 | 2.46 ± 0.043 | 2.18 ± 0.04
EQKKTATEVTPQEPKHI [RPC19] | 2.45 ± 0.054 | 3.02 ± 0.054 | 2.6 ± 0.072 | 2.54 ± 0.04
LNFSTTAPANTTDANGS [MED2] | 2.06 ± 0.061 | 2.08 ± 0.051 | 2.58 ± 0.056 | 2.78 ± 0.057
KKGKSSDKDATTDGKND [RPN1] | – | 3.28 ± 0.2 | 3.44 ± 0.16 | 3.52 ± 0.2
FTGEKPIITGSTSTSSS [MED8] | 2.71 ± 0.062 | 2.7 ± 0.054 | 2.78 ± 0.052 | 2.13 ± 0.043
GRICRPLIIVSDGQSRV [RET1] | 2.06 ± 0.045 | 2.11 ± 0.037 | 1.75 ± 0.059 | 2.16 ± 0.038
EAARICANKYMTTVSGR [RPL10] | 2.24 ± 0.24 | 2.59 ± 0.14 | 1.75 ± 0.2 | 1.93 ± 0.1
APIKKIIERYIKSKADA [PRP8] | 3.11 ± 0.12 | 3.24 ± 0.12 | 2.98 ± 0.079 | 3.13 ± 0.11

Sequence | protein stability index (doa10∆) | protein stability index (pdr5∆) | protein stability index (san1∆) | protein stability index (ubr1∆)
NNKILEKCKEINVETVY [BRR2] | 1.73 ± 0.06 | 2 ± 0.062 | 1.78 ± 0.19 | 2.06 ± 0.067
KDEEIEKLLQQDREITN [MED8] | 3.26 ± 0.13 | 3.12 ± 0.13 | 3.06 ± 0.24 | 3.59 ± 0.14
LESSITDAGVLALKLEL [YJL039C/NUP192] | 1.57 ± 0.06 | 1.48 ± 0.061 | 1.3 ± 0.13 | 1.57 ± 0.085
APNHSPEIDNLDDLVVL [RRP6] | 3.16 ± 0.11 | 3.51 ± 0.11 | 3 ± 0.15 | 2.71 ± 0.088
HGSISPQEESVSPNISS [SIR3] | 2.82 ± 0.075 | 3.06 ± 0.07 | 2.98 ± 0.046 | 3.01 ± 0.034
KYRPETAAEKKERLTKE [RPL8A] | 3.08 ± 0.081 | 2.76 ± 0.076 | 3.12 ± 0.056 | 3.01 ± 0.067
RDYSKEILGINLANEQP [SIR4] | 2.71 ± 0.048 | 3.04 ± 0.044 | 3.07 ± 0.039 | 3.02 ± 0.036
KAIFQFVCRGMAATQTI [ECM29] | 1.52 ± 0.051 | 1.73 ± 0.048 | 1.46 ± 0.17 | 1.48 ± 0.049
MEIVANAKESNYTDLIW [MED1] | 3.27 ± 0.094 | 3.41 ± 0.16 | 3.44 ± 0.078 | 2.83 ± 0.081
FLQHPDEEYPVKVKVSY [PRP8] | 3.24 ± 0.083 | 3.18 ± 0.11 | 3.21 ± 0.082 | 2.63 ± 0.063
PSLLLQKDQDGRIPLHW [NAS6] | 3.28 ± 0.28 | 3.38 ± 0.21 | – | –
TVINEQQREAVRQLYKG [RPL35A] | 3.44 ± 0.094 | 3.43 ± 0.14 | 3.13 ± 0.12 | 3.31 ± 0.079
LYDALEPSDLRSWTLTS [YGL100W/SEH1] | 2.82 ± 0.048 | 2.79 ± 0.046 | 2.78 ± 0.038 | 3.03 ± 0.049
HGMSVDPRHIQLLGDVM [RPO31] | 2.73 ± 0.057 | 2.82 ± 0.062 | 2.85 ± 0.049 | 2.98 ± 0.04
GRDAFHLRVRVHPFHVL [RPL10] | 1.7 ± 0.061 | 2 ± 0.077 | 1.86 ± 0.11 | 2.09 ± 0.048
LTFILGQLLSVKFLVYQ [YML031W/NDC1] | 1.53 ± 0.081 | 2.14 ± 0.12 | 1.51 ± 0.19 | 1.69 ± 0.097
VEKGTPLGKILLKGDNI [SME1] | 3.58 ± 0.088 | 3.43 ± 0.093 | 3.38 ± 0.14 | 3.59 ± 0.078
WEQLKITVVPVVAAAED [QCR6] | 1.89 ± 0.059 | 2.14 ± 0.059 | 1.99 ± 0.099 | 2.03 ± 0.033
ETSGVTTALLKDEEIEK [MED8] | 3.2 ± 0.097 | 3.05 ± 0.18 | 2.84 ± 0.17 | 3.63 ± 0.11
IPSSYIKRTDEGGEAEF [ARP7] | 3.4 ± 0.16 | 3.14 ± 0.1 | 3.16 ± 0.11 | 3.45 ± 0.051
NANEISANTNNTCTIST [SWP82] | 2.61 ± 0.041 | 2.61 ± 0.045 | 2.9 ± 0.04 | 2.62 ± 0.031
QHLRNEHGMNAPSVPEF [SNF2] | 2.86 ± 0.1 | 3.56 ± 0.13 | 2.96 ± 0.08 | 3.09 ± 0.061
IIKDYVLDIVPGSSITE [SRB4] | – | 2.58 ± 0.19 | – | 3.2 ± 0.19
NDDELNKLLGNVTIAQG [HTA1] | 3.31 ± 0.12 | 3.5 ± 0.12 | 3.48 ± 0.064 | 3.34 ± 0.078
